Source: publication PMC9834311

Biological target: E. coli F1Fo ATP synthase subunit b (cysteine-free enzyme) (E. coli) (UniProt P0ABA0)
Test: cryo-EM structure; detergent-solubilised (digitonin) cysteine-free E. coli F1Fo ATP synthase (WT at 11 μM, εΔCTH2 mutant at 9 μM) with 10 mM MgATP, pH 8.0, 22 °C, 45 s in all until freezing

Work on “E. coli F1Fo ATP synthase subunit b (cysteine-free enzyme) (from UniProt P0ABA0 1-156) (natural protein)” yielded a stoichiometry N of 2.
